Laboratory results: the supplement of paper PMC10126150
± gives the standard deviation of the averaged measurements.

Tested on: ATP
Assay: switch fluorescence ratio, 500 uM ATP over buffer (Cy3 cluster intensity, sum of 5 cycles each) (fold (ratio)); higher = stronger signal-on switching upon ATP binding; sequences stand for … in TCGTCGGCAGCGTCAGATGTGTATAAGAGACAGTTTTTTTTTTTTTTTTTTTTTTTTT…TC
Conditions: aptamer strand: ATP DNA aptamer (quencher-CACCTGGGGGAGTATTGCGGAGGAAGG + anchor), 100 nM annealed; ATP concentration: 500 uM
Procedure, shortened: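 The fluorescence ratio divides summed target-cycle Cy3 intensity by summed buffer-cycle Cy3 intensity for each cluster and is averaged per switch-domain sequence. Cy3-labelled switching-strand clusters on a modified Illumina MiSeq flow-cell were annealed to 100 nM quencher-labelled ATP aptamer, then imaged in selection buffer and again after 15 min with 500 uM ATP at 22 °C. Five such cycles were run, with NaOH stripping and re-annealing between them, and clusters outside 100-1000 RFU were excluded.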
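Note: ATP exposure 15 min at 22 °C before imaging.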

Sequence | switch fluorescence ratio
TTATATTGGT | 0.974 ± 0.028
TTATATTTCT | 1.01 ± 0.036
TTATCAATGG | 1.01 ± 0.078
TTATCAGTGG | 0.9707 ± 0.002
TTATCATCTA | 1.02 ± 0.013
TTATCATGGG | 0.993 ± 0.047
TTATCCGGGT | 0.9661 ± 0.0088
TTATCGGATT | 0.983 ± 0.029
TTATCGGGAG | 0.9964 ± 0.0019
TTATCTAATC | 0.972 ± 0.008
TTATCTCGTA | 0.99 ± 0.013
TTATCTCTGG | 0.9776 ± 0.0076
TTATGAAAGG | 0.968 ± 0.03
TTATGAATAG | 0.99 ± 0.011
TTATGACATT | 1.01 ± 0.044
TTATGACGGG | 1 ± 0.036
TTATGAGAGC | 0.964 ± 0.022
TTATGAGGGG | 1.009 ± 0.0077
TTATGAGTTG | 0.963 ± 0.029
TTATGAGTTT | 0.988 ± 0.036
TTATGATCAG | 0.9912 ± 0.0038
TTATGATTCA | 0.973 ± 0.022
TTATGCAAAA | 1.14 ± 0.21

Sequence | switch fluorescence ratio
TTATGCCGGG | 0.971 ± 0.032
TTATGCTTTC | 1.25 ± 0.34
TTATGGACTG | 1.01 ± 0.079
TTATGGGAAG | 0.998 ± 0.013
TTATGGGCAG | 1.01 ± 0.029
TTATGGGCGA | 1 ± 0.046
TTATGGTCTG | 0.984 ± 0.038
TTATGGTGGG | 0.981 ± 0.015
TTATGTAGGT | 0.9798 ± 0.007
TTATGTTTAA | 0.999 ± 0.025
TTATTAAATG | 0.998 ± 0.013
TTATTAAGGT | 1.01 ± 0.031
TTATTACGCT | 0.9981 ± 0.0094
TTATTACGGG | 1.01 ± 0.038
TTATTACTTA | 0.984 ± 0.017
TTATTAGAAG | 0.978 ± 0.012
TTATTAGAGC | 0.958 ± 0.085
TTATTAGGAT | 0.974 ± 0.024
TTATTAGGCA | 1.01 ± 0.023
TTATTAGTCA | 0.986 ± 0.041
TTATTATGGG | 0.987 ± 0.0073
TTATTCATCG | 1.01 ± 0.031
TTATTCGCAA | 4.457 ± 0.044

Sequence | switch fluorescence ratio
TTATTCGGTA | 0.9978 ± 0.0065
TTATTCGTCC | 1.04 ± 0.058
TTATTCTTTC | 1.01 ± 0.046
TTATTGCGCT | 0.994 ± 0.013
TTATTGCGGG | 0.967 ± 0.019
TTATTGGGAC | 0.972 ± 0.02
TTATTGTTAC | 1.03 ± 0.036
TTATTGTTTT | 1.02 ± 0.065
TTATTTATTT | 0.975 ± 0.03
TTATTTGAGT | 1.06 ± 0.12
TTATTTTAAC | 0.981 ± 0.04
TTATTTTTAT | 0.998 ± 0.018
TTATTTTTGC | 1.01 ± 0.042
TTCAAAACGC | 1.03 ± 0.054
TTCAAAAGGG | 1.05 ± 0.052
TTCAAAATGT | 0.997 ± 0.032
TTCAAAGTCA | 1.02
TTCAAATGAG | 0.98 ± 0.044
TTCAAATGCT | 0.998 ± 0.013
TTCAAATTTA | 0.995 ± 0.025
TTCAACGACG | 0.988 ± 0.082
TTCAAGATGG | 0.992 ± 0.046
TTCAAGATTT | 0.974 ± 0.022

Sequence | switch fluorescence ratio
TTCAAGCAGA | 1.034 ± 0.0087
TTCAAGCTGG | 1.039 ± 0.0098
TTCAAGGGAG | 0.995 ± 0.014
TTCAAGGGTT | 1.07 ± 0.18
TTCAATACCG | 1.09 ± 0.025
TTCAATATGC | 1.1 ± 0.033
TTCAATATTT | 1 ± 0.024
TTCAATCCGT | 1.17 ± 0.24
TTCAATGTAG | 1 ± 0.029
TTCAATTCAC | 1.37 ± 0.41
TTCAATTTCC | 1.01 ± 0.028
TTCACAGGAG | 1.12 ± 0.05
TTCACATTGG | 1.01 ± 0.03
TTCACGAGTG | 0.988 ± 0.052
TTCACTGGGC | 1.01 ± 0.0013
TTCACTTTGA | 1.012 ± 0.0067
TTCACTTTTT | 1 ± 0.012
TTCAGAAGCC | 1.12 ± 0.061
TTCAGAAGCG | 1.01 ± 0.028
TTCAGAAGGT | 1.01 ± 0.051
TTCAGACTTT | 0.996 ± 0.022
TTCAGAGCGT | 0.994 ± 0.018
TTCAGATGCG | 0.993 ± 0.041

Sequence | switch fluorescence ratio
TTCAGATGGG | 0.972 ± 0.01
TTCAGCCATT | 1.01 ± 0.041
TTCAGCCGAG | 1.02 ± 0.014
TTCAGCTCTA | 0.993 ± 0.028
TTCAGGAGAC | 1.01 ± 0.041
TTCAGGAGTG | 0.993 ± 0.067
TTCAGGCCGT | 1.02 ± 0.056
TTCAGGGAGA | 1.005 ± 0.008
TTCAGGGGCT | 1.43 ± 0.58
TTCAGGGGTC | 1.02 ± 0.018
TTCAGTACCT | 1.19 ± 0.016
TTCAGTATGG | 0.9614 ± 0.0068
TTCAGTGCAT | 1.02 ± 0.051
TTCAGTGGAG | 1.009 ± 0.0087
TTCAGTTCGT | 1.008 ± 0.0089
TTCAGTTGAG | 1 ± 0.014
TTCAGTTTTA | 1.017 ± 0.0035
TTCATAACAA | 1.02 ± 0.022
TTCATAATGT | 0.9632 ± 0.0096
TTCATCAGCG | 1.05 ± 0.083
TTCATCGGGG | 0.979 ± 0.028
TTCATGAGTT | 1 ± 0.0022
TTCATGGGGC | 1.05 ± 0.086

Sequence | switch fluorescence ratio
TTCATTAATC | 0.97104 ± 0.00025
TTCATTCGCT | 1.52 ± 0.056
TTCATTCGTT | 1.05 ± 0.046
TTCATTGGGA | 1.01 ± 0.025
TTCATTTCGG | 1.001 ± 0.0025
TTCATTTGGT | 0.983 ± 0.025
TTCCAATGAT | 1.01 ± 0.044
TTCCACCAAA | 1.07 ± 0.033
TTCCAGTTGG | 1.04 ± 0.037
TTCCATGTCG | 0.958 ± 0.02
TTCCATTTTT | 0.984 ± 0.012
TTCCCCAGTT | 1.03 ± 0.036
TTCCCCCTTT | 1.45 ± 0.58
TTCCCCGTTG | 1.12 ± 0.15
TTCCCGAAGT | 1.02 ± 0.04
TTCCCGGACT | 1.02 ± 0.024
TTCCCGTGGG | 1 ± 0.011
TTCCGAAGGT | 1.03 ± 0.03
TTCCGAGATA | 1.119 ± 0.0079
TTCCGAGCTA | 2.563 ± 0.0074
TTCCGCCGCT | 2.34 ± 1.8
TTCCGGGAGG | 0.993 ± 0.076
TTCCGGGGCG | 0.991 ± 0.038

Sequence | switch fluorescence ratio
TTCCGGTCTT | 1.03 ± 0.066
TTCCGGTTGT | 1.03 ± 0.011
TTCCGTTATG | 1.04 ± 0.037
TTCCTCTGTT | 1.37 ± 0.26
TTCCTGAGGG | 1.11 ± 0.058
TTCCTGGAC | 1.7 ± 0.39
TTCCTTAGCG | 1.03 ± 0.015
TTCCTTGGAT | 1.015 ± 0.0019
TTCCTTGGTC | 1.18 ± 0.24
TTCCTTTTGT | 1.29 ± 0.43
TTCGAAGGTT | 0.979 ± 0.017
TTCGACGCTA | 1.33 ± 0.57
TTCGACGGTT | 1.03 ± 0.033
TTCGACTTCG | 0.9903 ± 0.0063
TTCGACTTTT | 0.988 ± 0.051
TTCGAGACTT | 1.05 ± 0.055
TTCGAGCGAT | 1.78 ± 0.98
TTCGAGTTGG | 0.9772 ± 0.0027
TTCGATCGTT | 1.01 ± 0.043
